Changes are numbered by the printed parent chain. Names may count otherwise.
Experiments:
VEGF [1] = molecular target: T1, VEGF (human, UniProt P15692-4 27-191, limits assumed); test: competition ELISA: Fab + biotinylated VEGF, then KDR-IgG plate
T1 construct: also called vascular endothelial growth factor; biotinylated VEGF
Protocol: Standards (6.9-440 ng/ml chimeric F(ab)) and two-fold serial of samples were incubated with 2 nM biotinylated VEGF for 1 h in tubes. The solutions from the tubes were then transferred to the ELISA plates and incubated for 1 h. […] Titration curves were fit with a four-parameter nonlinear regression curve-fitting program (KaleidaGraph, Synergy Software, Reading Pa.). […] Assays for full-length IgG were the same as for the F(ab)s except that the assay buffer contained 10% human serum.

VEGF [2] = molecular target: T1, VEGF; test: BIAcore-2000 SPR, wt = Y0192
Protocol: (§1) The VEGF-binding affinities of Fab fragments were calculated from association and dissociation rate constants measured using a BIAcore-2000™ surface plasmon resonance system (BIAcore, Inc., Piscataway, N.J.). A biosensor chip was activated for covalent coupling of VEGF using N-ethyl-N′-(3-dimethylaminopropyl)-carbodiimide hydrochloride (EDC) and N-hydroxysuccinimide (NHS) according to the supplier's (BIAcore, Inc., Piscataway, N.J.) instructions. VEGF was buffered exchanged into 20 mM sodium acetate, pH 4.8 and diluted toapproximately 50 μg/mL. An aliquot (35 μL) was injected at a flow rate of 2 μL/min to achieve approximately 700-1400 response units (RU) of coupled protein. Finally, 1 M ethanolamine was injected as a blocking agent.
(§2) For kinetics measurements, two-fold serial dilutions of Fab were injected in PBS/TWEEN™ buffer (0.05% TWEEN 20™ in phosphate buffered saline) at 25° C. at a flow rate of 10 μL/min. […] Equilibrium dissociation constants, Kd's from surface plasmon resonance (SPR) measurements were calculated as koff/kon.

VEGF [3] = molecular target: T1, VEGF; test: BIAcore-2000 SPR
Protocol: as §1, §2

rhVEGF165 = rhVEGF165 (human, UniProt P15692 27-191); test: cell-based or functional assay
VEGF121 [4] = molecular target: T2, VEGF121 (human, UniProt P15692 27-147); test: BIAcore SPR, VEGF121 on chip
T2 construct: mature; also called Purified VEGF121
T2 sequence (looked up): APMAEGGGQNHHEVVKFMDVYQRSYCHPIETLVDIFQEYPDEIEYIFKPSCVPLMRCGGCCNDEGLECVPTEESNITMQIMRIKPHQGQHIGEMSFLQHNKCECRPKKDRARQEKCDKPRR
Protocol: (§3) VEGF₁₂₁ was covalently immobilized on the biosensor chip via primary amino groups. Binding of humanized A4.6.1 Fab variants was measured by flowing solutions of Fab in PBS/0.05% TWEEN 20™ over the chip at a flow rate of 20 μL/min. Following each binding measurement, residual Fab was stripped from the immobilized ligand by washing with 5 μL of 50 mM aqueous HCl at 3 μL/min. Binding profiles were analyzed by nonlinear regression using a simple monovalent binding model (BIAevaluation software v2.0; Pharmacia).

VEGF121 [5] = molecular target: T2, VEGF121; test: BIAcore SPR, VEGF121 on chip, Fab in flow
Protocol: as §3

B1: chimeric F(ab) (Fab, V domains shown)
VH: EIQLVQSGPELKQPGETVRISCKASGYTFTNYGMNWVKQAPGKGLKWMGWINTYTGEPTYAADFKRRFTFSLETSASTAYLQISNLKNDDTATYFCAKYPHYYGSSHWYFDVWGAGTTVTVSS
VL: DIQMTQTTSSLSASLGDRVIISCSASQDISNYLNWYQQKPDGTVKVLIYFTSSLHSGVPSRFSGSGSGTDYSLTISNLEPEDIATYYCQQYSTVPWTFGGGTKLEIKR
notes: Murine A4.6.1 VH fused to human CH1 at SerH113 and murine VL fused to human CL at LysL107; also called chim-F(ab); A4.6.1 chimera
EC50 (VEGF [1]): 49 µg/mL

B2: Y0238-1 (Fab, V domains shown)
VH: EVQLVESGGGLVQPGGSLRLSCAASGYTFTNYGINWVRQAPGKGLEWVGWINTYTGEPTYAADFKRRFTFSLDTSKSTAYLQMNSLRAEDTAVYYCAKYPYYRGTSHWYFDVWGQGTL
VL: DIQLTQSPSSLSASVGDRVTITCRANEQLSNYLNWYQQKPGKAPKVLIYFTSSLHSGVPSRFSGSGSGTDFTLTISSLQPEDFATYYCQQYSTVPWTFGQGTKVEIKR
notes: Clone of library YC-81 on the pY0192 template; Soluble Fab
Kd (wt)/Kd (VEGF [2]): 7.3 ratio

B3: Y0244-4 (Fab, V domains shown)
VH: B2 VH with L72I, T74K, Y101H, R103Y, T105S
VL: B2 VL
notes: Soluble Fab
Kd (wt)/Kd (VEGF [2]): 0.9 ratio

B4: Y0238-5 (Fab, V domains shown)
VH: B2 VH with R103I, G104A, T105K
VL: B2 VL
notes: as for B2
Kd (wt)/Kd (VEGF [2]): 3.2 ratio

B5: Y0238-3 (Fab, V domains shown)
VH: B2 VH with R103Y
VL: B2 VL
notes: Soluble Fab from E. coli 34B8
Kd (wt)/Kd (VEGF [2]): ≥ 14 ratio | Kd (VEGF [3]): 150 pM

B6: Y0238-10 (Fab, V domains shown)
VH: B2 VH with G104N
VL: B2 VL
notes: as for B2
Kd (wt)/Kd (VEGF [2]): 4.8 ratio

B7: Y0244-1 (Fab, V domains shown)
VH: B2 VH with L72V, T74V, Y101H, R103Y, T105S
VL: B2 VL
notes: Soluble Fab
Kd (wt)/Kd (VEGF [2]): 3.6 ratio

B8: Y0313-1 (Fab, V domains shown)
VH: B2 VH with T28D, N31H, I34M, R103Y
VL: B2 VL
notes: Y0243-1 with VH3 H101Y and S105T; soluble Fab
potency in the HuVEC assay relative to the wild-type Fab (Y0192) (rhVEGF165): > 30 fold | Kd (wt)/Kd (VEGF [2]): ≥ 20 ratio

B9: Y0243-1 (Fab, V domains shown)
VH: B2 VH with T28D, N31H, I34M, Y101H, R103Y, T105S
VL: B2 VL
notes: Soluble Fab from E. coli 34B8
Kd (wt)/Kd (VEGF [2]): 4.1 ratio

B10: Y0313-3 (Fab, V domains shown)
VH: B2 VH with R103Y, T105S
VL: B2 VL
notes: Reversion mutant of Y0238-3 (VH3 T105S); soluble Fab
Kd (wt)/Kd (VEGF [2]): 4.5 ratio

B11: Y0238-7 (Fab, V domains shown)
VH: B2 VH with R103W
VL: B2 VL
notes: as for B2
Kd (wt)/Kd (VEGF [2]): ≥ 7.3 ratio

B12: F(ab)-1 (Fab, V domains shown)
VH: EVQLVESGGGLVQPGGSLRLSCAASGYTFTNYGMNWVRQAPGKGLEWVGWINTYTGEPTYAADFKRRFTISRDNSKNTLYLQMNSLRAEDTAVYYCARYPHYYGSSHWYFDVWGQGTLVTVSS
VL: DIQMTQSPSSLSASVGDRVTITCSASQDISNYLNWYQQKPGKAPKLLIYFTSSLHSGVPSRFSGSGSGTDFTLTISSLQPEDFATYYCQQYSTVPWTFGQGTKVEIK
fold reduction of binding affinity against chimeric F(ab) (VEGF [1]): > 1000 fold

B13: hu2.10 (Fab, V domains shown)
VH: B12 VH with V37I, R72L, N74T, K76A, N77S, L79V, R98K
VL: B12 VL with F71Y
notes: Phage-selected consensus clone, soluble Fab with human constant domains; also called consensus clone hu2.10
fold tighter KD against hu2.0 (VEGF121 [4]): ≥ 125 fold | KD(A4.6.1)/KD(mut) as headed (values run as KD(mut)/KD(A4.6.1)) (VEGF121 [5]): 35 ratio

B14: F(ab)-8 (Fab, V domains shown)
VH: B12 VH with I70F, R72L, N74T, L79A
VL: B12 VL with L46V
notes: F(ab)-5 with IleH69Phe and LeuH78Ala; Human CH1 and CL
fold improvement of binding against F(ab)-5 (VEGF [1]): 8 fold

B15: F(ab)-6 (Fab, V domains shown)
VH: B12 VH with R72L, N74T, L79A
VL: B12 VL with L46V
notes: F(ab)-5 with LeuH78Ala; Human CH1 and CL
fold improvement of binding against F(ab)-5 (VEGF [1]): 2 fold

B16: F(ab)-5 (Fab, V domains shown)
VH: B12 VH with R72L, N74T
VL: B12 VL with L46V
notes: Human CH1 and CL
fold increase of binding affinity against F(ab)-4 (VEGF [1]): ~4 fold

B17: F(ab)-7 (Fab, V domains shown)
VH: B12 VH with I70F, R72L, N74T
VL: B12 VL with L46V
notes: F(ab)-5 with IleH69Phe; Human CH1 and CL
fold improvement of binding against F(ab)-5 (VEGF [1]): 2 fold

B18: F(ab)-9 (Fab, V domains shown)
VH: B12 VH with G49A, I70F, R72L, N74T, L79A
VL: B12 VL with L46V
notes: F(ab)-8 with GlyH49Ala; Human CH1 and CL
fold reduction of binding against F(ab)-8 (VEGF [1]): 15 fold

B19: hu2.10V (Fab, V domains shown)
VH: B12 VH with V37I, R72L, N74T, K76A, N77S, L79V, R98K
VL: B12 VL with L46V, F71Y
notes: hu2.10 with the Leu->Val change at VL 46; Fab
fold improvement in KD against hu2.10 (VEGF121 [4]): 6 fold | KD(A4.6.1)/KD(mut) as headed (values run as KD(mut)/KD(A4.6.1)) (VEGF121 [5]): 5.8 ratio
